4 molecules from paper PMC3753316, “The Interaction between Factor H and Von Willebrand Factor” (PLoS ONE, 2013) can be followed below.

Experiment [1] has as its target recombinant VWF-A2 as used in the ELISA and Biacore experiments (human) (UniProt P04275). As to the kind of experiment: SPR; Biacore 3000, 25 C; VWF-A2 (1000 RU) or VWF-A3 (800 RU) immobilised; fH 40 to 640 nM, 20 uL/min; for VWF-A2 responses at equilibrium fitted to a one-site binding isotherm. (In general: In SPR one partner is held on a chip, and binding of the other changes the refractive index at the surface.)

Experiment [2] deals with recombinant His-tagged VWF-A1 domain (amino acids Q1238-D1471) (human). As to the kind of experiment: SPR; Biacore 3000, 25 C; VWF-A1 immobilised (1500 RU); fH 40 to 640 nM, 20 uL/min; fitted to two-state model; apparent KD.
In experiment [3] the target is plasma purified human VWF (human). The experiment can be described thus: SPR; Biacore 3000, 25 C; VWF immobilised by amine coupling (2100 RU); fH 5 to 320 nM in HBS with 50 uM ZnCl2, 30 uL/min; global fit to two-state model; apparent KD.
In experiment [4] the target is T1, plasma purified human factor H (human, UniProt P08603 19-1231).
T1 construct: complement factor H, human, purified from plasma (150 kD, 20 SCRs); also the endogenous protein in normal serum; also called fH; complement factor H; source: bought: Complement Technology Inc., plasma purified; endogenous, normal human serum
The experiment can be described thus: co-IP; plasma-purified fH (30 nM) incubated with His-tagged VWF-A1, -A2 (E. coli or HEK 293), -A3 or Myc-tagged VWF-BC (100 nM); precipitated with anti-fH antibody or IgG; blot anti-VWF. The following applies: both partners purified.

In experiment [5] the target is T2, truncated fH F2 with SCRs 1-10, amino acids M1-E625 (human, UniProt P08603 19-625).
T2 construct: signal peptide in the construct; complement factor H, human, SCRs 1-10, amino acids M1-E625, in pSecTag2B His tag vector; source: HEK 293, stably transfected, secreted into serum-free medium, purified (Ni-NTA)
As to the kind of experiment: pull-down; GST-VWF-A2 (100 nM) incubated with recombinant F4, F3, F2 or F1 (30 nM each); glutathione agarose beads, overnight 4 C; blot polyclonal or monoclonal (90X) anti-fH. Conditions: both partners purified.

For experiment [6], the target named is T3, recombinant full-length wild type human fH (F4 with SCRs 1-20, amino acids M1-R1231) (human, UniProt P08603 19-1231).
T3 construct: signal peptide in the construct; complement factor H, human, SCRs 1-20, amino acids M1-R1231, in pSecTag2B His tag vector; also called full-length recombinant fH; source: HEK 293, stably transfected, secreted into serum-free medium, purified (Ni-NTA)
Described as above. The following applies: both partners purified.

In experiment [7] the target is T4, truncated fH F3 with SCRs 1-15, amino acids M1-G928 (human, UniProt P08603 19-928).
T4 construct: signal peptide in the construct; complement factor H, human, SCRs 1-15, amino acids M1-G928, in pSecTag2B His tag vector; source: HEK 293, stably transfected, secreted into serum-free medium, purified (Ni-NTA)
Described as above. The following applies: both partners purified.

T1 sequence (P08603 19-1231): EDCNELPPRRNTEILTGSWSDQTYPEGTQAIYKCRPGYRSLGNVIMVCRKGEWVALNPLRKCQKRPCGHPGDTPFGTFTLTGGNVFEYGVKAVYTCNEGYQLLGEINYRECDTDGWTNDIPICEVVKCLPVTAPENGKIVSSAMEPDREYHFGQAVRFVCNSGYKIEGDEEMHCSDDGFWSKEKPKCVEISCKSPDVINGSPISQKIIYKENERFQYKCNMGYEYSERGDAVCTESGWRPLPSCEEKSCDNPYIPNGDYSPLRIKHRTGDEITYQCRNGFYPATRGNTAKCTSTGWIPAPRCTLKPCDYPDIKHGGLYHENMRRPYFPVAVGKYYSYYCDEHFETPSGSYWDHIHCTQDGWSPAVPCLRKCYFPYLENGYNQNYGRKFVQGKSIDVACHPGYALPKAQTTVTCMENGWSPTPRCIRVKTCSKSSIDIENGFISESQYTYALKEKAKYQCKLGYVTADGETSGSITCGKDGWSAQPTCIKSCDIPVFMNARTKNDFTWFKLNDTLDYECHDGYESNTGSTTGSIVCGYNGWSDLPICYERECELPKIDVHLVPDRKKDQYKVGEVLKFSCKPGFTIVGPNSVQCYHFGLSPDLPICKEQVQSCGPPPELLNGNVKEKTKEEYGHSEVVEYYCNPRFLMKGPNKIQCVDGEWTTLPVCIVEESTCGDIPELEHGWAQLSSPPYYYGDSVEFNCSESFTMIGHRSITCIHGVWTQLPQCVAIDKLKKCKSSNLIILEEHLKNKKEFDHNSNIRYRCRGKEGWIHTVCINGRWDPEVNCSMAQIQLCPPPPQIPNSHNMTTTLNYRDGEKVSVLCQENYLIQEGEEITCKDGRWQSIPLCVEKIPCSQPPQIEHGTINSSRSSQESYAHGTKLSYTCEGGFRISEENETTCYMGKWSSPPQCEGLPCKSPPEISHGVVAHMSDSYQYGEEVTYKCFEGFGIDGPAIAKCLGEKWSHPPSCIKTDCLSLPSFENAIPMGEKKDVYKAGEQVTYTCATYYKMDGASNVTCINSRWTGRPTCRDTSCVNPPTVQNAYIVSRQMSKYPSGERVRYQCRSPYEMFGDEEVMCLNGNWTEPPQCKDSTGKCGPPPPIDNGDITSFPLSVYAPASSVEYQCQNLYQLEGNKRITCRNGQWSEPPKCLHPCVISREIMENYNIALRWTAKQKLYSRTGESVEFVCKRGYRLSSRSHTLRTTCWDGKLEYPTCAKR
T3 sequence (P08603 19-1231): as above
T2 sequence (P08603 19-625): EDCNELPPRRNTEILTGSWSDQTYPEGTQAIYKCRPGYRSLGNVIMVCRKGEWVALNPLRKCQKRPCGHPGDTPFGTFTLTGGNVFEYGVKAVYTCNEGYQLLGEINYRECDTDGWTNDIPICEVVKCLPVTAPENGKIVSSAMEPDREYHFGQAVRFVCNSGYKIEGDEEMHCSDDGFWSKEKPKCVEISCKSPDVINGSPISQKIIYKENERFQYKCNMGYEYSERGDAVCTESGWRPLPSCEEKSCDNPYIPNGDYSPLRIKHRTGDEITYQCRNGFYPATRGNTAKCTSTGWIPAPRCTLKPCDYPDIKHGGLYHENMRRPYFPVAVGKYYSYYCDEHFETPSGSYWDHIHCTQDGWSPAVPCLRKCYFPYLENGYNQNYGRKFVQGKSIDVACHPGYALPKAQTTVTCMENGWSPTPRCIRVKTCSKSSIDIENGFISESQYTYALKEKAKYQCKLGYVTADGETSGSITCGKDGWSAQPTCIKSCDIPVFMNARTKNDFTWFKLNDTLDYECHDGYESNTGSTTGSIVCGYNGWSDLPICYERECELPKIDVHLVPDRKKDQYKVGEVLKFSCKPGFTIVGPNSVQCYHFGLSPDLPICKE
T4 sequence (P08603 19-928): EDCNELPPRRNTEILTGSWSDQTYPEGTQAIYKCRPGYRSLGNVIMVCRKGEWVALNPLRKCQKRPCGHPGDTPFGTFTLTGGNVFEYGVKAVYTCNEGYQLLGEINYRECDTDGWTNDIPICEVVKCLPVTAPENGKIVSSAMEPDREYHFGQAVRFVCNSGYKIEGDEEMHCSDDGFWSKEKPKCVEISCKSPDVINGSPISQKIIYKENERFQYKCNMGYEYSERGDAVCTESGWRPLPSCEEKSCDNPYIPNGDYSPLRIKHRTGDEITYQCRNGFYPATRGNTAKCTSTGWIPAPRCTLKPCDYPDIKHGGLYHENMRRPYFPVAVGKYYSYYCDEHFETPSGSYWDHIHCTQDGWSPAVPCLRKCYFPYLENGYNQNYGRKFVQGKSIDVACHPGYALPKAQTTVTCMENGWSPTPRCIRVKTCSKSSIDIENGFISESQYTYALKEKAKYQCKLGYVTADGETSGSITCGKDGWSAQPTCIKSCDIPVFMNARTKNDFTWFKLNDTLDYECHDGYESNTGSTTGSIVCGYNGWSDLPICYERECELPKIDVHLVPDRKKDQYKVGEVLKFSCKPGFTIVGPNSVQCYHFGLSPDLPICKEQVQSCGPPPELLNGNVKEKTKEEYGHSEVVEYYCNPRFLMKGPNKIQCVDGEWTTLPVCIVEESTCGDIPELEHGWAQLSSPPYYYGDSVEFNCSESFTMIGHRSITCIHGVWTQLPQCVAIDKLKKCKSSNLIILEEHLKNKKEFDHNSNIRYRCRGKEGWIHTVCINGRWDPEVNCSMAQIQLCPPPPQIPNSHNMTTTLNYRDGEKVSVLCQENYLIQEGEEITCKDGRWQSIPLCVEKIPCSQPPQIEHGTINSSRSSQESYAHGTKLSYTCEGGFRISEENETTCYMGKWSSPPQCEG

In the case of “plasma purified human factor H (from UniProt P08603 19-1231) (natural protein)”, in experiment [1], the Kd worked out at 147 nM. In addition, in experiment [2], the Kd amounted to 161 nM; the ka1 (binding step, two-state model) was found to be 53600 M⁻¹ s⁻¹; the ka2 (forward rate, conformational change step) was 0.00797 s⁻¹; the kd1 (binding step, two-state model) came out at 0.0358 s⁻¹. Also, the kd2 (backward rate, conformational change step) in experiment [2] turned out to be 0.00254 s⁻¹. In experiment [3], the Kd was found to be 32.9 nM; the ka1 (binding step, two-state model) worked out at 60000 M⁻¹ s⁻¹; the ka2 (forward rate, conformational change step) was found to be 0.007 s⁻¹; the kd1 (binding step, two-state model) came to 0.0158 s⁻¹. Also, the kd2 (backward rate, conformational change step) in experiment [3] was 0.0009 s⁻¹.

B1: recombinant His-tagged VWF-A2 (amino acids G1481-R1668), purified from transfected E. coli (domain or fragment)
chain: GLLGVSTLGPKRNSMVLDVAFVLEGSDKIGEADFNRSKEFMEEVIQRMDVGQDSIHVTVLQYSYMVTVEYPFSEAQSKGDILQRVREIRYQGGNRTNTGLALRYLSDHSFLVSQGDREQAPNLVYMVTGNPASDEIKRLPGDIQVVPIGVGPNANVQELERIGWPNAPILIQDFETLPREAPDLVLQR
notes: von Willebrand factor A2 domain, amino acids G1481-R1668; source: E. coli, purified (Ni-NTA)
Consider B1, for which the binding result in experiment [4] is “binds”.

B2: recombinant His-tagged VWF-A2 (amino acids P1480-G1672), purified from transfected HEK 293 cells (domain or fragment)
chain: PGLLGVSTLGPKRNSMVLDVAFVLEGSDKIGEADFNRSKEFMEEVIQRMDVGQDSIHVTVLQYSYMVTVEYPFSEAQSKGDILQRVREIRYQGGNRTNTGLALRYLSDHSFLVSQGDREQAPNLVYMVTGNPASDEIKRLPGDIQVVPIGVGPNANVQELERIGWPNAPILIQDFETLPREAPDLVLQRCCSG
notes: von Willebrand factor A2 domain, amino acids P1480-G1672, in pSecTag2B His-tag vector; also called His-tagged A2; source: HEK 293, purified (Ni-NTA)
With B2, the binding result in experiment [4] is “binds”.

B3: GST-VWF-A2 fusion protein (amino acids P1480-G1672) (domain or fragment)
chain: B2 chain
notes: von Willebrand factor A2 domain, amino acids P1480-G1672, in pGEX-2T GST vector; also called GST-A2; recombinant VWF-A2; source: E. coli, purified (glutathione agarose beads)
With B3, the binding result in experiment [5], in experiment [6] and in experiment [7] was “binds” in each case.
